Consider 1 substance from paper PMC11405016.

The experiment concerns the target Prominin 1 (Prom1) W795R, human S1 isoform, C-terminally Strep-tagged (human). The experiment is described as follows: co-IP; EVs from co-transfected Expi293 cells, purified and solubilised with 1% DDM (25 mM HEPES-NaOH pH 7.8, 150 mM NaCl, 5 mM CaCl2); Prom1-Strep captured on StrepTactinXT 4Flow resin, 1 hr at 4°C; co-purified mNeonGreen or mScarlet fluorescence on the beads measured by montaged epifluorescence imaging, normalised to mTagBFP2-Strep on the resin.

The substance “Prominin 1 (Prom1) W795R, human S1 isoform, C-terminally Strep-tagged (natural protein)” registered a co-purified mScarlet fluorescence relative to WT Prom1 (% of WT Prom1) of 60.
